From the supplement of paper PMC7125110
± gives the standard error. This sample holds only a part of the variants without activity.

B1: glmS ribozyme (parent)
chain: AUAAAAGCGCCAGAACUACAGAAAUGUAGUUGACGAGGAGGAGGUUUAUCGAAUUUUCGGCGGAUGCCUCCAAA

How the values were obtained:
Conditions in all cases: with glucosamine-6-phosphate
glucosamine-6-phosphate [1] = variants of: B1; experiment: self-cleavage kobs at 40 uM GlcN6P; higher = faster cleavage; RNA array
Method in brief: (§1)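 Sequenced MiSeq chips were the platform: E. coli RNA polymerase transcribed barcoded ribozyme variants on them in situ, and a hybridised Cy3 probe tracked these at 37 °C. After glucosamine-6-phosphate (40 μM to 10 mM) in HEPES/KCl/Mg(OAc)2 buffer was flowed in, tiles were imaged over ~14 h. Signals normalised to baseline and to non-cleaving reference variants were reduced to per-tile medians and fit to one- or two-exponential decays to obtain kobs. kcat and KM were derived through weighted Michaelis–Menten fits across concentrations.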

glucosamine-6-phosphate [2] = variants of: B1; experiment: self-cleavage kobs at 640 uM GlcN6P; higher = faster cleavage; RNA array
Method in brief: as §1

glucosamine-6-phosphate [3] = variants of: B1; experiment: self-cleavage kobs at 2500 uM GlcN6P; higher = faster cleavage; RNA array
Method in brief: as §1

glucosamine-6-phosphate [4] = variants of: B1; experiment: self-cleavage kobs at 10000 uM GlcN6P; higher = faster cleavage; RNA array
Method in brief: as §1

glucosamine-6-phosphate [5] = variants of: B1; experiment: self-cleavage kobs at 160 uM GlcN6P; higher = faster cleavage; RNA array
Method in brief: as §1

Variant	self-cleavage kobs at 40 uM GlcN6P (glucosamine-6-phosphate [1])	self-cleavage kobs at 640 uM GlcN6P (glucosamine-6-phosphate [2])	self-cleavage kobs at 2500 uM GlcN6P (glucosamine-6-phosphate [3])	self-cleavage kobs at 10000 uM GlcN6P (glucosamine-6-phosphate [4])	self-cleavage kobs at 160 uM GlcN6P (glucosamine-6-phosphate [5])
C11A U45C A48G	< 1e-05 s⁻¹	< 1e-05 s⁻¹	< 1e-05 s⁻¹	< 1e-05 s⁻¹	
G7C G41U C50G	< 1e-05 s⁻¹				
A36C G41A G43A	< 1e-05 s⁻¹				
U45A U55A	0.00151 ± 0.00018 s⁻¹	0.00993 ± 0.0023 s⁻¹	0.00931 ± 0.0037 s⁻¹	0.09 ± 0.031 s⁻¹	
G44A C70U	< 1e-05 s⁻¹				< 1e-05 s⁻¹
G41U G43C	< 1e-05 s⁻¹	< 1e-05 s⁻¹	< 1e-05 s⁻¹		< 1e-05 s⁻¹
G44U A53G C70A	< 1e-05 s⁻¹		< 1e-05 s⁻¹	< 1e-05 s⁻¹	
G37A G44U U65G	< 1e-05 s⁻¹	< 1e-05 s⁻¹		< 1e-05 s⁻¹	< 1e-05 s⁻¹
U45A G66A	0.000969 ± 0.00013 s⁻¹	0.00848 ± 0.0021 s⁻¹	0.00884 ± 0.002 s⁻¹	0.0359 ± 0.011 s⁻¹	0.00224 ± 0.00044 s⁻¹
G9A G63C	< 1e-05 s⁻¹			< 1e-05 s⁻¹	
U30A G35A G59A C71G	< 1e-05 s⁻¹		< 1e-05 s⁻¹		
U57G G60U	< 1e-05 s⁻¹	< 1e-05 s⁻¹	< 1e-05 s⁻¹		< 1e-05 s⁻¹
C16G G29U C71U	0.000193 ± 4.3e-05 s⁻¹	0.00358 ± 0.00079 s⁻¹	0.00344 ± 0.0014 s⁻¹	0.013 ± 0.0037 s⁻¹	
A14G U31A A52C	< 1e-05 s⁻¹				
C16G U30G C50G	0.00013 ± 4.8e-05 s⁻¹	6.59e-05 ± 3.2e-05 s⁻¹	0.000324 ± 5e-05 s⁻¹	7.3e-05 ± 1.9e-05 s⁻¹	
A12U G13A U31A G38A G40A	< 1e-05 s⁻¹			< 1e-05 s⁻¹	
G7U A12C	< 1e-05 s⁻¹	< 1e-05 s⁻¹	< 1e-05 s⁻¹	< 1e-05 s⁻¹	< 1e-05 s⁻¹
C8G G41U C61U	< 1e-05 s⁻¹			< 1e-05 s⁻¹	< 1e-05 s⁻¹
A14G C67A	0.000654 ± 7e-05 s⁻¹	0.00492 ± 0.00077 s⁻¹	0.00642 ± 0.0014 s⁻¹	0.0413 ± 0.01 s⁻¹	0.00108 ± 0.00017 s⁻¹
A6U C11U G44U	< 1e-05 s⁻¹	< 1e-05 s⁻¹	< 1e-05 s⁻¹	< 1e-05 s⁻¹	
G35C C61U G62A	< 1e-05 s⁻¹			< 1e-05 s⁻¹	
G37C U56C	< 1e-05 s⁻¹			< 1e-05 s⁻¹	
A12C C71A	6.84e-05 ± 9.7e-06 s⁻¹	0.000423 ± 6.6e-05 s⁻¹	0.00201 ± 0.0003 s⁻¹	0.00229 ± 0.00033 s⁻¹	
G59A A64U C67G	< 1e-05 s⁻¹				

Variant	self-cleavage kobs at 40 uM GlcN6P (glucosamine-6-phosphate [1])	self-cleavage kobs at 640 uM GlcN6P (glucosamine-6-phosphate [2])	self-cleavage kobs at 2500 uM GlcN6P (glucosamine-6-phosphate [3])	self-cleavage kobs at 10000 uM GlcN6P (glucosamine-6-phosphate [4])	self-cleavage kobs at 160 uM GlcN6P (glucosamine-6-phosphate [5])
A52U G59U	< 1e-05 s⁻¹	< 1e-05 s⁻¹		< 1e-05 s⁻¹	< 1e-05 s⁻¹
A33C G44A C71A	< 1e-05 s⁻¹			< 1e-05 s⁻¹	
G41C A48C	< 1e-05 s⁻¹	< 1e-05 s⁻¹	< 1e-05 s⁻¹	< 1e-05 s⁻¹	
U31A C71G	4.17e-05 ± 1e-05 s⁻¹	0.000196 ± 3.4e-05 s⁻¹	0.000225 ± 4.8e-05 s⁻¹	0.000728 ± 0.00011 s⁻¹	0.000162 ± 3.4e-05 s⁻¹
G7C A39U	< 1e-05 s⁻¹	< 1e-05 s⁻¹		< 1e-05 s⁻¹	
G43U G51A	< 1e-05 s⁻¹	< 1e-05 s⁻¹			
C11G U46G C58G C67U	0.000158 ± 4.6e-05 s⁻¹	0.000483 ± 0.00015 s⁻¹		0.000304 ± 8.1e-05 s⁻¹	
A33G G35A U47A C67U C70G	5.2e-05 ± 2.3e-05 s⁻¹			6.3e-05 ± 1.7e-05 s⁻¹	
C34U A53G C68G	7.28e-05 ± 3.2e-05 s⁻¹			0.000655 ± 0.00017 s⁻¹	
G44A A48C	< 1e-05 s⁻¹	< 1e-05 s⁻¹	< 1e-05 s⁻¹		< 1e-05 s⁻¹
A6U U49G	< 1e-05 s⁻¹	< 1e-05 s⁻¹	< 1e-05 s⁻¹		< 1e-05 s⁻¹
A12C C58A G63A	< 1e-05 s⁻¹				
A14G U69C	0.00132 ± 0.00036 s⁻¹			0.00782 ± 0.0029 s⁻¹	
A15G U69C	0.00027 ± 7e-05 s⁻¹	0.00141 ± 0.00058 s⁻¹	0.00345 ± 0.0012 s⁻¹		
U31A C50U	< 1e-05 s⁻¹				< 1e-05 s⁻¹
G7A G29A U55C G60U	< 1e-05 s⁻¹		< 1e-05 s⁻¹		
U56G G62A G63A	< 1e-05 s⁻¹				
U54A G60C	< 1e-05 s⁻¹	< 1e-05 s⁻¹		< 1e-05 s⁻¹	
C68G C71G	2.7e-05 ± 1.3e-05 s⁻¹	8.75e-05 ± 2.3e-05 s⁻¹	9.89e-05 ± 1.7e-05 s⁻¹		7.77e-05 ± 1.5e-05 s⁻¹
G29U U30G G43C C68G	0.000152 ± 2.6e-05 s⁻¹			0.0065 ± 0.0015 s⁻¹	
G63U A64G	< 1e-05 s⁻¹	< 1e-05 s⁻¹		< 1e-05 s⁻¹	< 1e-05 s⁻¹
G32U C67U C70U	< 1e-05 s⁻¹				
A12U G29U A33U A42U U49A	< 1e-05 s⁻¹				
G32A C50G G60A C68G	6.94e-05 ± 1.7e-05 s⁻¹			5.25e-05 ± 1.1e-05 s⁻¹	

Variant	self-cleavage kobs at 40 uM GlcN6P (glucosamine-6-phosphate [1])	self-cleavage kobs at 640 uM GlcN6P (glucosamine-6-phosphate [2])	self-cleavage kobs at 2500 uM GlcN6P (glucosamine-6-phosphate [3])	self-cleavage kobs at 10000 uM GlcN6P (glucosamine-6-phosphate [4])	self-cleavage kobs at 160 uM GlcN6P (glucosamine-6-phosphate [5])
C34U C68G	0.000563 ± 0.00025 s⁻¹	0.00228 ± 0.0011 s⁻¹		0.000463 ± 0.00015 s⁻¹	
C8A A48U	< 1e-05 s⁻¹	< 1e-05 s⁻¹	< 1e-05 s⁻¹		
G13U G32U G37A G40C	< 1e-05 s⁻¹				
G59C A64U	< 1e-05 s⁻¹	< 1e-05 s⁻¹		< 1e-05 s⁻¹	< 1e-05 s⁻¹
G63C C71U	< 1e-05 s⁻¹			< 1e-05 s⁻¹	< 1e-05 s⁻¹
C10A A48G	< 1e-05 s⁻¹	< 1e-05 s⁻¹		< 1e-05 s⁻¹	< 1e-05 s⁻¹
G7U G60C	< 1e-05 s⁻¹	< 1e-05 s⁻¹		< 1e-05 s⁻¹	< 1e-05 s⁻¹
G35U C68A	< 1e-05 s⁻¹	< 1e-05 s⁻¹	< 1e-05 s⁻¹	< 1e-05 s⁻¹	< 1e-05 s⁻¹
G37U U46C	< 1e-05 s⁻¹			< 1e-05 s⁻¹	
C11U G29C A53U U56G C70A	0.000205 ± 4.8e-05 s⁻¹			0.000369 ± 8.6e-05 s⁻¹	
C16A G38C	< 1e-05 s⁻¹	< 1e-05 s⁻¹		< 1e-05 s⁻¹	< 1e-05 s⁻¹
U30G C58G	< 1e-05 s⁻¹	6.88e-05 ± 3e-05 s⁻¹	6.46e-05 ± 1.8e-05 s⁻¹	0.000122 ± 1.4e-05 s⁻¹	
G7U U57G C61A C68U C70U	5.84e-05 ± 2.5e-05 s⁻¹				
A28G G43C U45A C67G	< 1e-05 s⁻¹				
G9C A12G G37C U47C G60A C71U	< 1e-05 s⁻¹			< 1e-05 s⁻¹	
C11A G44A	< 1e-05 s⁻¹	< 1e-05 s⁻¹	< 1e-05 s⁻¹	< 1e-05 s⁻¹	
U30G A52C U65G C67G C70U	< 1e-05 s⁻¹				
G7A G13C G38A	< 1e-05 s⁻¹		< 1e-05 s⁻¹		
G9C U46C	< 1e-05 s⁻¹	< 1e-05 s⁻¹		< 1e-05 s⁻¹	
G51U G59A	< 1e-05 s⁻¹			< 1e-05 s⁻¹	
A12U C16A A53U	6.29e-05 ± 1.7e-05 s⁻¹	0.000278 ± 8.9e-05 s⁻¹	0.00138 ± 0.00059 s⁻¹		
G9U C34U	< 1e-05 s⁻¹	< 1e-05 s⁻¹	< 1e-05 s⁻¹	< 1e-05 s⁻¹	
C34G G41U C58U	< 1e-05 s⁻¹			< 1e-05 s⁻¹	
G38C U49G A52C	< 1e-05 s⁻¹		< 1e-05 s⁻¹		

Variant	self-cleavage kobs at 40 uM GlcN6P (glucosamine-6-phosphate [1])	self-cleavage kobs at 640 uM GlcN6P (glucosamine-6-phosphate [2])	self-cleavage kobs at 2500 uM GlcN6P (glucosamine-6-phosphate [3])	self-cleavage kobs at 10000 uM GlcN6P (glucosamine-6-phosphate [4])	self-cleavage kobs at 160 uM GlcN6P (glucosamine-6-phosphate [5])
G38A A52G	< 1e-05 s⁻¹	< 1e-05 s⁻¹	< 1e-05 s⁻¹	< 1e-05 s⁻¹	
G38C U45C U55C	< 1e-05 s⁻¹		< 1e-05 s⁻¹		
G35C U46G C70G	< 1e-05 s⁻¹	< 1e-05 s⁻¹	< 1e-05 s⁻¹	< 1e-05 s⁻¹	
C8A G35C	< 1e-05 s⁻¹	< 1e-05 s⁻¹	< 1e-05 s⁻¹	< 1e-05 s⁻¹	< 1e-05 s⁻¹
U31C U49G C67U	< 1e-05 s⁻¹				
U30C C61U	< 1e-05 s⁻¹				< 1e-05 s⁻¹
A48G A53G C68G	6.75e-05 ± 2.2e-05 s⁻¹			5.82e-05 ± 1.7e-05 s⁻¹	
A14U C50G C58U	0.000443 ± 0.00014 s⁻¹			3.69e-05 ± 1.8e-05 s⁻¹	
G9A A42C C71A	< 1e-05 s⁻¹	< 1e-05 s⁻¹	< 1e-05 s⁻¹	< 1e-05 s⁻¹	< 1e-05 s⁻¹
C8G A39U A53C C58U	< 1e-05 s⁻¹				
C11A A14C G63C U69C	< 1e-05 s⁻¹				
A14U G37A C50U G63C	< 1e-05 s⁻¹				
C10U A48C	< 1e-05 s⁻¹	< 1e-05 s⁻¹	< 1e-05 s⁻¹	< 1e-05 s⁻¹	< 1e-05 s⁻¹
A15G G29A U55G	5.71e-05 ± 1.7e-05 s⁻¹			0.00317 ± 0.00043 s⁻¹	
G7A U56G	< 1e-05 s⁻¹	< 1e-05 s⁻¹			
G41C A53C C61A	< 1e-05 s⁻¹			< 1e-05 s⁻¹	
C8G C68U	< 1e-05 s⁻¹				
A6C A15U A33U U69G	< 1e-05 s⁻¹				
C8U	< 1e-05 s⁻¹	< 1e-05 s⁻¹	< 1e-05 s⁻¹		< 1e-05 s⁻¹
A6G C8A G32C	< 1e-05 s⁻¹		< 1e-05 s⁻¹		
G59A G60U	< 1e-05 s⁻¹	< 1e-05 s⁻¹	< 1e-05 s⁻¹	< 1e-05 s⁻¹	
G9A G13A G63C	< 1e-05 s⁻¹			< 1e-05 s⁻¹	
A12U U30G U47G A48U U49C U69C C70G	< 1e-05 s⁻¹			< 1e-05 s⁻¹	
G60A C61A C67G C68G	4.45e-05 ± 2.2e-05 s⁻¹				
